Measurements: the supplement of paper PMC7877785
± gives the uncertainty stated by the source.

Assay: self-splicing fitness, log relative to wild type (ln ratio); higher = more splicing; Tetrahymena group I intron in knt gene, E. coli kanamycin selection, DiMSum; sequences stand for … in CUCUCU…GGAGGGAAAAGUUAUCAGGCAUGCACCUGGUAGCUAGUCUUUAAACCAAUAGAUUGCAUCGGUUUAAAAGGCAAGACCGUCAAAUUGCGGGAAAGGGGUCAACAGCCGUUCAGUACCAAGUCUCAGGGGAAACUUUGAGAUGGCCUUGCAAAGGGUAUGGUAAUAAGCUGACGGACAUGGUCCUAACCACGCAGCCAAGUCCUAAGUCAACAGAUCUUCUGUUGAUAUGGAUGCAGUUCACAGACUAAAUGUCGGUCGGGGAAGAUGUAUUCUUCUCAUAAGAUAUAGUCGGACCUCUCCUUAAUGGGAGCUAGCGGAUGAAGUGAUGCAACACUGGAGCCGCUGGGAACUAAUUUGUAUGCGAAAGUAUAUUGAUUAGUUUUGGAGUACUCGUGGUCG
Outline: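 Pooled colonies went to amplicon sequencing on an Illumina HiSeq 2500 after six replicate transformations. The plates were LB agar with 100 μg/mL carbenicillin, 50 μM IPTG and 0.2% rhamnose, with or without 25 μg/mL kanamycin, incubated overnight at 37°C or 30°C. The E. coli BL21(DE3) library had all eight P1ex-region intron nucleotides randomised, the intron placed in the knt kanamycin-resistance gene on pET-22b(+). DiMSum fitness is the error-weighted combination of replicate fold changes, kanamycin against none, normalised to wild type.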

Sequence: AUGCAGCAAUAUUACGGUCU
- self-splicing fitness (ln) (30 °C): -0.211 ± 0.078
- self-splicing fitness (ln) (37 °C): 0.0315 ± 0.091

Sequence: AUGCAGCAAUAUUACGUAGC
- self-splicing fitness (ln) (30 °C): -3.81 ± 0.37
- self-splicing fitness (ln) (37 °C): -2.34 ± 0.24

Sequence: AUGCAGCAAUAUUACGUAUU
- self-splicing fitness (ln) (30 °C): -4.03 ± 0.26
- self-splicing fitness (ln) (37 °C): -1.69 ± 0.14

Sequence: AUGCAGCAAUAUUACGUGGC
- self-splicing fitness (ln) (30 °C): -4.09 ± 0.28
- self-splicing fitness (ln) (37 °C): -2.53 ± 0.19

Sequence: AUGCAGCAAUAUUACGUGUG
- self-splicing fitness (ln) (30 °C): -2.45 ± 0.071
- self-splicing fitness (ln) (37 °C): -1.44 ± 0.085

Sequence: AUGCAGCAAUAUUACGUUCG
- self-splicing fitness (ln) (30 °C): -0.728 ± 0.059
- self-splicing fitness (ln) (37 °C): -0.798 ± 0.089

Sequence: AUGCAGCAAUAUUACGUUUC
- self-splicing fitness (ln) (30 °C): -3.96 ± 0.18
- self-splicing fitness (ln) (37 °C): -3.31 ± 0.32

Sequence: AUGGAGCAAUAUUACGAAUA
- self-splicing fitness (ln) (30 °C): -2.15 ± 0.34
- self-splicing fitness (ln) (37 °C): -1.08 ± 0.36

Sequence: AUGGAGCAAUAUUACGACCG
- self-splicing fitness (ln) (30 °C): -3.83 ± 0.37
- self-splicing fitness (ln) (37 °C): -1.19 ± 0.26

Sequence: AUGGAGCAAUAUUACGAUGU
- self-splicing fitness (ln) (30 °C): -1.25 ± 0.14
- self-splicing fitness (ln) (37 °C): -0.184 ± 0.2

Sequence: AUGGAGCAAUAUUACGCACC
- self-splicing fitness (ln) (30 °C): -2.45 ± 0.4
- self-splicing fitness (ln) (37 °C): -1.26 ± 0.22

Sequence: AUGGAGCAAUAUUACGCCAC
- self-splicing fitness (ln) (30 °C): -2.95 ± 0.41

Sequence: AUGGAGCAAUAUUACGCCCU
- self-splicing fitness (ln) (30 °C): -2.84 ± 0.3
- self-splicing fitness (ln) (37 °C): -2.13 ± 0.37

Sequence: AUGGAGCAAUAUUACGCGGG
- self-splicing fitness (ln) (30 °C): -2.84 ± 0.45

Sequence: AUGGAGCAAUAUUACGCUGU
- self-splicing fitness (ln) (30 °C): -2.13 ± 0.21
- self-splicing fitness (ln) (37 °C): -1.37 ± 0.44

Sequence: AUGGAGCAAUAUUACGGACA
- self-splicing fitness (ln) (30 °C): -3.23 ± 0.43
- self-splicing fitness (ln) (37 °C): -1.91 ± 0.2

Sequence: AUGGAGCAAUAUUACGGAGG
- self-splicing fitness (ln) (30 °C): -2.11 ± 0.17
- self-splicing fitness (ln) (37 °C): -2.54 ± 0.3

Sequence: AUGGAGCAAUAUUACGGGGU
- self-splicing fitness (ln) (37 °C): -2.27 ± 0.37

Sequence: AUGGAGCAAUAUUACGGGUA
- self-splicing fitness (ln) (30 °C): -3.28 ± 0.27
- self-splicing fitness (ln) (37 °C): -3.06 ± 0.35

Sequence: AUGGAGCAAUAUUACGGUCC
- self-splicing fitness (ln) (30 °C): -3 ± 0.32
- self-splicing fitness (ln) (37 °C): -0.466 ± 0.31

Sequence: AUGGAGCAAUAUUACGGUGG
- self-splicing fitness (ln) (30 °C): -4.09 ± 0.3
- self-splicing fitness (ln) (37 °C): -2.17 ± 0.27

Sequence: AUGGAGCAAUAUUACGUACU
- self-splicing fitness (ln) (30 °C): -0.848 ± 0.16
- self-splicing fitness (ln) (37 °C): -0.491 ± 0.18

Sequence: AUGGAGCAAUAUUACGUCAU
- self-splicing fitness (ln) (37 °C): -1.33 ± 0.27

Sequence: AUGGAGCAAUAUUACGUGAG
- self-splicing fitness (ln) (30 °C): -2.31 ± 0.14
- self-splicing fitness (ln) (37 °C): -2.09 ± 0.15

Sequence: AUGGAGCAAUAUUACGUGGA
- self-splicing fitness (ln) (30 °C): -4.25 ± 0.4
- self-splicing fitness (ln) (37 °C): -1.78 ± 0.29

Sequence: AUGGAGCAAUAUUACGUGGC
- self-splicing fitness (ln) (30 °C): -2.39 ± 0.29
- self-splicing fitness (ln) (37 °C): -2.39 ± 0.38

Sequence: AUGGAGCAAUAUUACGUGGU
- self-splicing fitness (ln) (30 °C): -3.08 ± 0.17
- self-splicing fitness (ln) (37 °C): -1.35 ± 0.23

Sequence: AUGGAGCAAUAUUACGUGUG
- self-splicing fitness (ln) (37 °C): -2.69 ± 0.24

Sequence: AUGGAGCAAUAUUACGUUAA
- self-splicing fitness (ln) (30 °C): -2.58 ± 0.22
- self-splicing fitness (ln) (37 °C): -1.59 ± 0.23

Sequence: AUGUAGCAAUAUUACGAAAG
- self-splicing fitness (ln) (30 °C): -2.59 ± 0.23
- self-splicing fitness (ln) (37 °C): -2.2 ± 0.26

Sequence: AUGUAGCAAUAUUACGACCG
- self-splicing fitness (ln) (30 °C): -0.834 ± 0.12
- self-splicing fitness (ln) (37 °C): -0.5 ± 0.17

Sequence: AUGUAGCAAUAUUACGACUA
- self-splicing fitness (ln) (30 °C): -0.419 ± 0.27
- self-splicing fitness (ln) (37 °C): -0.536 ± 0.31

Sequence: AUGUAGCAAUAUUACGAGAU
- self-splicing fitness (ln) (30 °C): -2.04 ± 0.14
- self-splicing fitness (ln) (37 °C): -0.409 ± 0.13

Sequence: AUGUAGCAAUAUUACGAGGA
- self-splicing fitness (ln) (30 °C): -3 ± 0.41
- self-splicing fitness (ln) (37 °C): -2.11 ± 0.43

Sequence: AUGUAGCAAUAUUACGAUAG
- self-splicing fitness (ln) (30 °C): -2.48 ± 0.19
- self-splicing fitness (ln) (37 °C): -2.67 ± 0.27

Sequence: AUGUAGCAAUAUUACGAUGU
- self-splicing fitness (ln) (30 °C): -0.753 ± 0.064
- self-splicing fitness (ln) (37 °C): -0.0629 ± 0.087

Sequence: AUGUAGCAAUAUUACGAUUG
- self-splicing fitness (ln) (30 °C): -1.21 ± 0.15
- self-splicing fitness (ln) (37 °C): -3.05 ± 0.38

Sequence: AUGUAGCAAUAUUACGCAGG
- self-splicing fitness (ln) (30 °C): -2.06 ± 0.22
- self-splicing fitness (ln) (37 °C): -1.7 ± 0.19

Sequence: AUGUAGCAAUAUUACGCCGG
- self-splicing fitness (ln) (30 °C): -2.45 ± 0.17
- self-splicing fitness (ln) (37 °C): -0.942 ± 0.33

Sequence: AUGUAGCAAUAUUACGCCUG
- self-splicing fitness (ln) (30 °C): -1.33 ± 0.23
- self-splicing fitness (ln) (37 °C): -0.722 ± 0.21
